The supplement of paper PMC10567573

B1: SNX3 (parent)
chain: FLRQLPFRGDDGIFDDNFIEERKQ

Variants of: B1
Test: protein stability index of a GFP-peptide fusion (GPS, HEK-293T) (PSI 1-6); higher = more stable
Conditions: c terminus: a fixed tail appended
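Note: lentivirally expressed fusions sorted by FACS into six bins by GFP to DsRed ratio, PSI derived from sequencing read proportions per bin multiplied by bin number.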

Variant | protein stability index
FLRQVPFRGDDGIFDDNFIEERKQ [L5V] | 4.15
FLRQMPFRGDDGIFDDNFIEERKQ [L5M] | 3.39
FLRQHPFRGDDGIFDDNFIEERKQ [L5H] | 3.22
FNRQLPFRGDDGIFDDNFIEERKQ [L2N] | 4.08
FGRQLPFRGDDGIFDDNFIEERKQ [L2G] | 4.59
FIRQLPFRGDDGIFDDNFIEERKQ [L2I] | 2.59
FLRQLPFRGDDGDFDDNFIEERKQ [I13D] | 4.24
FLRQLPFRGDDGLFDDNFIEERKQ [I13L] | 3.26
FLRQLPFRGDDGQFDDNFIEERKQ [I13Q] | 4.03
FLRQLPFRGDDGPFDDNFIEERKQ [I13P] | 4.03
FLRQLPFRGDDGKFDDNFIEERKQ [I13K] | 4.7
FLRQLPFRQDDGIFDDNFIEERKQ [G9Q] | 2.98
FLRQLPFRTDDGIFDDNFIEERKQ [G9T] | 2.97
FLRQLPFRNDDGIFDDNFIEERKQ [G9N] | 2.72
FLRQLPFRPDDGIFDDNFIEERKQ [G9P] | 3.06
FLRQLPFRDDDGIFDDNFIEERKQ [G9D] | 3.04
FLRQLPFRRDDGIFDDNFIEERKQ [G9R] | 3.27
FLRQLPFRLDDGIFDDNFIEERKQ [G9L] | 2.99
FLRQLPFRGDDGIFDDNFCEERKQ [I19C] | 3.29
ILRQLPFRGDDGIFDDNFIEERKQ [F1I] | 3.58
QLRQLPFRGDDGIFDDNFIEERKQ [F1Q] | 4.96
DLRQLPFRGDDGIFDDNFIEERKQ [F1D] | 4.7
FLRQLPFRGDDGIFDDNFIEEKKQ [R22K] | 3.81
FLRQLPFRGDDGIFDDNFIEEFKQ [R22F] | 3.44

Variant | protein stability index
FLRQLPFRGDDGIFDDNFIEERKW [Q24W] | 2.1
FLRQLPFRGDDGIFDDNFIEERKH [Q24H] | 2.91
FLRQLPFRGDDGIFDDNFIEERKE [Q24E] | 3.44
FLRQLPFRGDDGIFDDNFIEERKD [Q24D] | 3.62
FLKQLPFRGDDGIFDDNFIEERKQ [R3K] | 3.43
FLNQLPFRGDDGIFDDNFIEERKQ [R3N] | 3.48
FLFQLPFRGDDGIFDDNFIEERKQ [R3F] | 1.97
FLGQLPFRGDDGIFDDNFIEERKQ [R3G] | 3.1
FLWQLPFRGDDGIFDDNFIEERKQ [R3W] | 1.83
FLRQLPFRGDDGIFDDNFIEDRKQ [E21D] | 4.12
FLRQLPFRGDDGIFDDNFIETRKQ [E21T] | 3.13
FLRQLPFRGDDGIFDDNFIEVRKQ [E21V] | 2.02
FLRQLPKRGDDGIFDDNFIEERKQ [F7K] | 4
FLRQLPERGDDGIFDDNFIEERKQ [F7E] | 4.77
FLRQLPWRGDDGIFDDNFIEERKQ [F7W] | 3.05
FLRQLPSRGDDGIFDDNFIEERKQ [F7S] | 3.76
FLRALPFRGDDGIFDDNFIEERKQ [Q4A] | 3.78
FLRFLPFRGDDGIFDDNFIEERKQ [Q4F] | 2.44
FLRQLPFAGDDGIFDDNFIEERKQ [R8A] | 3.15
FLRQLPFFGDDGIFDDNFIEERKQ [R8F] | 2.44
FLRQLPFVGDDGIFDDNFIEERKQ [R8V] | 3.56
FLRQLPFWGDDGIFDDNFIEERKQ [R8W] | 3.08
FLRQLPFIGDDGIFDDNFIEERKQ [R8I] | 2.67
FLRQLPFHGDDGIFDDNFIEERKQ [R8H] | 3.96

Variant | protein stability index
FLRQLPFMGDDGIFDDNFIEERKQ [R8M] | 3.1
FLRQLPFRGYDGIFDDNFIEERKQ [D10Y] | 1.9
FLRQLPFRGFDGIFDDNFIEERKQ [D10F] | 2.62
FLRQLPFRGRDGIFDDNFIEERKQ [D10R] | 3.27
FLRQLPFRGLDGIFDDNFIEERKQ [D10L] | 2.42
FLRQLPFRGDDGIDDDNFIEERKQ [F14D] | 4.79
FLRQLPFRGDDGIGDDNFIEERKQ [F14G] | 4.33
FLRQLPFRGDDGIRDDNFIEERKQ [F14R] | 3.88
FLRQLPFRGDDGIYDDNFIEERKQ [F14Y] | 2.84
FLRQLPFRGDDGIFDDRFIEERKQ [N17R] | 2.61
FLRQLPFRGDDGIFDDFFIEERKQ [N17F] | 2.58
FLRQLPFRGDDGIFDDGFIEERKQ [N17G] | 4.12
FLRQLPFRGDDGIFDDLFIEERKQ [N17L] | 2.28
FLRQLPFRGDDGIFDDNHIEERKQ [F18H] | 3.19
FLRQLPFRGDDGIFDDNAIEERKQ [F18A] | 4.56
FLRQLQFRGDDGIFDDNFIEERKQ [P6Q] | 3.32
FLRQLKFRGDDGIFDDNFIEERKQ [P6K] | 2.88
FLRQLHFRGDDGIFDDNFIEERKQ [P6H] | 3.1
FLRQLPFRGDDGIFDSNFIEERKQ [D16S] | 3.53
FLRQLPFRGDDGIFDQNFIEERKQ [D16Q] | 3
FLRQLPFRGDDGIFDRNFIEERKQ [D16R] | 3.23
FLRQLPFRGDDGIFDCNFIEERKQ [D16C] | 3.05
FLRQLPFRGDDGIFDGNFIEERKQ [D16G] | 3.18
FLRQLPFRGDTGIFDDNFIEERKQ [D11T] | 3.37

Variant | protein stability index
FLRQLPFRGDNGIFDDNFIEERKQ [D11N] | 3.01
FLRQLPFRGDQGIFDDNFIEERKQ [D11Q] | 3.16
FLRQLPFRGDKGIFDDNFIEERKQ [D11K] | 3
FLRQLPFRGDMGIFDDNFIEERKQ [D11M] | 3.05
FLRQLPFRGDPGIFDDNFIEERKQ [D11P] | 4.1
FLRQLPFRGDDQIFDDNFIEERKQ [G12Q] | 3.84
FLRQLPFRGDDHIFDDNFIEERKQ [G12H] | 3.77
FLRQLPFRGDDGIFYDNFIEERKQ [D15Y] | 2.43
FLRQLPFRGDDGIFQDNFIEERKQ [D15Q] | 2.97
FLRQLPFRGDDGIFIDNFIEERKQ [D15I] | 2.53
FLRQLPFRGDDGIFNDNFIEERKQ [D15N] | 2.75
FLRQLPFRGDDGIFDDNFIEERYQ [K23Y] | 2.99
FLRQLPFRGDDGIFDDNFIEERPQ [K23P] | 3.36
FLRQLPFRGDDGIFDDNFIEERAQ [K23A] | 3.45
FLRQLPFRGDDGIFDDNFIEERTQ [K23T] | 3.52
FLRQLPFRGDDGIFDDNFIPERKQ [E20P] | 2.44
FLRQLPFRGDDGIFDDNFIYERKQ [E20Y] | 2.84
FLRQLPFRGDDGIFDDNFIVERKQ [E20V] | 2.49
FLRQLPFRGDDGIFDDNFILERKQ [E20L] | 2.56
FLRQLPFRGDDGIFDDNFITERKQ [E20T] | 2.24
FLRQLPFRGDDGIFDDNFIMERKQ [E20M] | 2.79
FLRQLPFRGDDGIFDDNFIAERKQ [E20A] | 3.57
